# Data reported in PMC6746150, “Long-Term Local Injection of RAGE-Aptamer Suppresses the Growth of Malignant Melanoma in Nude Mice”.
# B1: RAGE-aptamer (XNA)
# DNA: CCTGATATGGTGTCACCGCCGCCTTAGTATTGGTGTCTAC
# modifications: phosphorothioate nucleotides at capital letters: ccTgATATggTgTcAccgccgccTTAgTATTggTgTcTAc (DNA)
# Target: V-domain RAGE (vRAGE) (human, UniProt Q15109 23-121)
# Assay: QCM (27 MHz); vRAGE immobilized; N = 3; 27-MHz QCM, vRAGE immobilized on sensor; buffer, salt, pH and temperature not stated (as described previously, ref 16)
# Chain of V-domain RAGE (vRAGE) (Q15109 23-121): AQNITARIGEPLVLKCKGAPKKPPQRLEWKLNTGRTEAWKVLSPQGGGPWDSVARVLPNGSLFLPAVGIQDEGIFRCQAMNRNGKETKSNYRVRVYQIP
binder,measurement,value
B1,Kd,4.44 ± 0.56 nM
